Test results taken from paper PMC10248883 (The Journal of Biological Chemistry, 2023).

Experiments:
[1] = target: RAMP3–CLR ECD; details: read-out: KI, equilibrium affinity; purified RAMP3–CLR ECD complex; ref [31]; cited from earlier work
[2] = target: RAMP2–CLR ECD; details: read-out: KI, equilibrium affinity; purified RAMP2–CLR ECD complex; ref [31]; cited from earlier work
[3] = target: NLuc–CLR–RAMP3 receptor (AM2R) in COS-7 membranes (human) (UniProt Q16602); experiment: FRET or BRET
NLuc–CLR–RAMP3 receptor (AM2R) in COS-7 membranes (human), sequence (Q16602 23-461, chain 1 of 2): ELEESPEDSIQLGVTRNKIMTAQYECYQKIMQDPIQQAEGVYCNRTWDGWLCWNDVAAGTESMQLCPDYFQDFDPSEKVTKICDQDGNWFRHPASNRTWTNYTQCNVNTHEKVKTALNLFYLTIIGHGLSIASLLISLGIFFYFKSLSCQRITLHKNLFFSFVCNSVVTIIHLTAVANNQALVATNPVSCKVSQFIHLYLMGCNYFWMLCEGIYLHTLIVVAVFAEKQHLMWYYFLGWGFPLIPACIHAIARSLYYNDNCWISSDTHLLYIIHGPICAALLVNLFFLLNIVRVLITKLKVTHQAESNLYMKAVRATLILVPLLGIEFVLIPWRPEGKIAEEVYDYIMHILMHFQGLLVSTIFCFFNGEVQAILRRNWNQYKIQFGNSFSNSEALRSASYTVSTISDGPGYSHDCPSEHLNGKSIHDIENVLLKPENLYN
NLuc–CLR–RAMP3 receptor (AM2R) in COS-7 membranes (human), sequence (O60896 24-148, chain 2 of 2, further chain): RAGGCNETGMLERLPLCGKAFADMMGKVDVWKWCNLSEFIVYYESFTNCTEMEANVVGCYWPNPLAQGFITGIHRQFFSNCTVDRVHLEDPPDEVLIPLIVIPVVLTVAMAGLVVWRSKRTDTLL

Substance: AM2/IMD: Synthetic human peptide AM2/IMD(1–47) purchased from Bachem
- Ki [1]: ~2000 nM
- Ki [2]: ~14 µM

Substance: AM2/IMD–TAMRA (peptide)
- Kd [3]: 7 nM
- half-life (t1/2) from the off-rate of the association kinetics [3]: 41 min
- half-life of the fast component of dissociation [3]: 7 min
- half-life of the slow component of dissociation [3]: 76 min

Substance: AM–TAMRA (peptide)
- Kd [3]: 26 nM
- half-life (t1/2) from the off-rate of the association kinetics [3]: 2.6 min
- half-life of the fast component of dissociation [3]: 0.75 min
- half-life of the slow component of dissociation [3]: 6.9 min
